Reference: patent publication US20150344540A1, “NOVEL GLP-1 RECEPTOR AGONISTS WITH CHOLESTEROL EFFLUX ACTIVITY” (NOVO NORDISK A/S, priority 2012, published 2015)
Where no end group is shown, it is not given here. [ ]: non-standard residue; d: D form. Aib = CC(C)(N)C(=O)O

Target: human GLP-1 receptor (human, UniProt P43220)
Experiment: cell-based or functional assay

| Binder | CRE luciferase EC50, 0% HSA [nM] | CRE luciferase EC50, 1% HSA [nM] |
| --- | --- | --- |
| H[Aib]EGTFTSDVSSYLEGEAVQEFIAWLVEAVAEFL-NH2 (N-terminus assumed; SMILES CC[C@H](C)[C@H](NC(=O)[C@H](Cc1ccccc1)NC(=O)[C@H](CCC(=O)O)NC(=O)[C@H](CCC(N)=O)NC(=O)[C@@H](NC(=O)[C@H](C)NC(=O)[C@H](CCC(=O)O)NC(=O)CNC(=O)[C@H](CCC(=O)O)NC(=O)[C@H](CC(C)C)NC(=O)[C@H](Cc1ccc(O)cc1)NC(=O)[C@H](CO)NC(=O)[C@H](CO)NC(=O)[C@@H](NC(=O)[C@H](CC(=O)O)NC(=O)[C@H](CO)NC(=O)[C@@H](NC(=O)[C@H](Cc1ccccc1)NC(=O)[C@@H](NC(=O)CNC(=O)[C@H](CCC(=O)O)NC(=O)C(C)(C)NC(=O)[C@@H](N)Cc1c[nH]cn1)[C@@H](C)O)[C@@H](C)O)C(C)C)C(C)C)C(=O)N[C@@H](C)C(=O)N[C@@H](Cc1c[nH]c2ccccc12)C(=O)N[C@@H](CC(C)C)C(=O)N[C@H](C(=O)N[C@@H](CCC(=O)O)C(=O)N[C@@H](C)C(=O)N[C@H](C(=O)N[C@@H](C)C(=O)N[C@@H](CCC(=O)O)C(=O)N[C@@H](Cc1ccccc1)C(=O)N[C@@H](CC(C)C)C(N)=O)C(C)C)C(C)C) [[Aib8,Glu23,Val25,Gln26,Glu34,Ala35,Val36,Ala37]-GLP-1-(7-37)-peptidyl-Glu-Phe-Leu amide] | 0.622 | 0.273 |
| H[Aib]EGTFTSDVSSYLEGEAVQEFIAWLVEQ[Aib]QEFL-NH2 (N-terminus assumed; SMILES CC[C@H](C)[C@H](NC(=O)[C@H](Cc1ccccc1)NC(=O)[C@H](CCC(=O)O)NC(=O)[C@H](CCC(N)=O)NC(=O)[C@@H](NC(=O)[C@H](C)NC(=O)[C@H](CCC(=O)O)NC(=O)CNC(=O)[C@H](CCC(=O)O)NC(=O)[C@H](CC(C)C)NC(=O)[C@H](Cc1ccc(O)cc1)NC(=O)[C@H](CO)NC(=O)[C@H](CO)NC(=O)[C@@H](NC(=O)[C@H](CC(=O)O)NC(=O)[C@H](CO)NC(=O)[C@@H](NC(=O)[C@H](Cc1ccccc1)NC(=O)[C@@H](NC(=O)CNC(=O)[C@H](CCC(=O)O)NC(=O)C(C)(C)NC(=O)[C@@H](N)Cc1c[nH]cn1)[C@@H](C)O)[C@@H](C)O)C(C)C)C(C)C)C(=O)N[C@@H](C)C(=O)N[C@@H](Cc1c[nH]c2ccccc12)C(=O)N[C@@H](CC(C)C)C(=O)N[C@H](C(=O)N[C@@H](CCC(=O)O)C(=O)N[C@@H](CCC(N)=O)C(=O)NC(C)(C)C(=O)N[C@@H](CCC(N)=O)C(=O)N[C@@H](CCC(=O)O)C(=O)N[C@@H](Cc1ccccc1)C(=O)N[C@@H](CC(C)C)C(N)=O)C(C)C) [[Aib8,Glu23,Val25,Gln26,Glu34,Gln35,Aib36,Gln37]-GLP-1-(7-37)-peptidyl-Glu-Phe-Leu amide] | 0.156 | 0.04 |
| H[Aib]EGTFTSDVSSYLEGEAVKEFIAWLVEKFKEFF-NH2 (N-terminus assumed; SMILES CC[C@H](C)[C@H](NC(=O)[C@H](Cc1ccccc1)NC(=O)[C@H](CCC(=O)O)NC(=O)[C@H](CCCCN)NC(=O)[C@@H](NC(=O)[C@H](C)NC(=O)[C@H](CCC(=O)O)NC(=O)CNC(=O)[C@H](CCC(=O)O)NC(=O)[C@H](CC(C)C)NC(=O)[C@H](Cc1ccc(O)cc1)NC(=O)[C@H](CO)NC(=O)[C@H](CO)NC(=O)[C@@H](NC(=O)[C@H](CC(=O)O)NC(=O)[C@H](CO)NC(=O)[C@@H](NC(=O)[C@H](Cc1ccccc1)NC(=O)[C@@H](NC(=O)CNC(=O)[C@H](CCC(=O)O)NC(=O)C(C)(C)NC(=O)[C@@H](N)Cc1c[nH]cn1)[C@@H](C)O)[C@@H](C)O)C(C)C)C(C)C)C(=O)N[C@@H](C)C(=O)N[C@@H](Cc1c[nH]c2ccccc12)C(=O)N[C@@H](CC(C)C)C(=O)N[C@H](C(=O)N[C@@H](CCC(=O)O)C(=O)N[C@@H](CCCCN)C(=O)N[C@@H](Cc1ccccc1)C(=O)N[C@@H](CCCCN)C(=O)N[C@@H](CCC(=O)O)C(=O)N[C@@H](Cc1ccccc1)C(=O)N[C@@H](Cc1ccccc1)C(N)=O)C(C)C) [[Aib8,Glu23,Val25,Glu34,Lys35,Phe36,Lys37]-GLP-1-(7-37)-peptidyl-Glu-Phe-Phe amide] | 1.22 | 0.431 |
